This note sets out measurements from patent publication US20210206873A1.

The target in assay [1] is human Toll-like Receptor 9 (TLR9) (human) (UniProt Q9NR96). Briefly: intracellular flow, pDCs; PE isotype control, no block.
The target is the same in assay [2]. The assay can be described thus: intracellular flow, B cells; PE isotype control, no block.

Chain of UniProt Q9NR96 (Q9NR96 26-1032): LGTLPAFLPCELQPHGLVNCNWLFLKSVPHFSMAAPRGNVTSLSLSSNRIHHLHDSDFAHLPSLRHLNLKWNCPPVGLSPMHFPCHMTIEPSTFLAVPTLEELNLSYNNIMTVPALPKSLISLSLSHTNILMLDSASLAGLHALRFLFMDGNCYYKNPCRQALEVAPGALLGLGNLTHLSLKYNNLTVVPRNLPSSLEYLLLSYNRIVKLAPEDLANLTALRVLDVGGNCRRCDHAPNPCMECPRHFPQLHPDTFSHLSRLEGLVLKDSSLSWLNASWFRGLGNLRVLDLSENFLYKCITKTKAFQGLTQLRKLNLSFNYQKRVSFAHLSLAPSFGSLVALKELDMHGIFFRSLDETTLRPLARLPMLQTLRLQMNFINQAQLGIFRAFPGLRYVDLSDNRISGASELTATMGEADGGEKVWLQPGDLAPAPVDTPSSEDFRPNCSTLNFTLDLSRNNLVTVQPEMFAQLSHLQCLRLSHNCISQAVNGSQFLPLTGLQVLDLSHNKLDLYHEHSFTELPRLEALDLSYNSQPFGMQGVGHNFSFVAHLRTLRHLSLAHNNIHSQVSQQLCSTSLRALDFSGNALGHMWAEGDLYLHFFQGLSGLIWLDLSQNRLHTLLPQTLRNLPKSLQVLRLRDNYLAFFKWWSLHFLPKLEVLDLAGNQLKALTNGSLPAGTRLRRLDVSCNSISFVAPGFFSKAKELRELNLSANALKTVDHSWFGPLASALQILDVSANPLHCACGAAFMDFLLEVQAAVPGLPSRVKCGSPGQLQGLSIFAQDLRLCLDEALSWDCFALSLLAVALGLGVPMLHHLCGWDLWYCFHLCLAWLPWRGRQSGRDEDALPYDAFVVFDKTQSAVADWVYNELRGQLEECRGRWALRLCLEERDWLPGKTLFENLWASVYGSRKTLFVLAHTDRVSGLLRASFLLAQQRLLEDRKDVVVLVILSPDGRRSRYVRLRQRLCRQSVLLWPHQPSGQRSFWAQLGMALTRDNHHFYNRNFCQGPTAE

With Rat IgG2a isotype control (antibody), the results for the MFI in assay [1] and in assay [2] were 490 and 142, respectively.
For Rat IgG2b isotype control (antibody), the MFI in assay [1] was 138; in assay [2], 52.
